Data on 19 sequences can be found in the DeepSol protein solubility set.

The data set can be described thus: soluble on expression in E. coli; label from the status in PepcDB or PDB records.
Turning to “MAEFLDDQETRLCDNCKKEIPVFNFTIHEIHCQRNIGMCPTCKEPFPKSDMETHMAAEHCQVTCKCNKKLEKRLLKKHEETECPLRLAVCQHCDLELSILKLKEHEDYCGARTELCGNCGRNVLVKDLKTHPEVCGREGEEKRNEVAIPPNAYDESWGQDGIWIASQLLRQIEALDPPMRLPRRPLRAFESDVFHNRTTNQRNITAQVSIQNNLFEEQERQERNRGQQPPKEGGEESANLDFMLALSLQNEGQASSVAEQDFWRAVCEADQSHGGPRSLSDIKGAADEIMLPCEFCEELYPEELLIDHQTSCNPSRALPSLNTGSSSPRGVEEPDVIFQNFLQQAASNQLDSLMGLSNSHPVEESIIIPCEFCGVQLEEEVLFHHQDQCDQRPATATNHVTEGIPRLDSQPQETSPELPRRRVRHQGDLSSGYLDDTKQETANGPTSCLPPSRPINNMTATYNQLSRSTSGPRPGCQPSSPCVPKLSNSDSQDIQGRNRDSQNGAIAPGHVSVIRPPQNLYPENIVPSFSPGPSGRYGASGRSEGGRNSRVTPAAANYRSRTAKAKPSKQQGAGDAEEEEEE”, the “soluble on expression in E. coli” value is listed as “soluble”.
As for “MAEGGTPVVATKPPVDNAKMLGELKLRLMHTKKGLLAIRGELQRRAEIWGAAQEEITALEKMASDAKERIQKQSDQKREERKLAAQKRKELKQKQKEEKKEESKDEKDGADDEKNDEN”, the entry is “not soluble”; as for “MAEGPLEAPFWRKGLLVAGLDEAGRGAWAGPIVVGAVVLPPGEYPFRDSKLLSPKARERLAEKVKEVALAFALGVAEAAEVDRLGVLKATLLAAERALLSLPLAPEALVTDYLPLPTPLPLLSPPKADEKSPTVAAASILAKVHRDRIMDELDRLYPGYGFARHKGYGTQEHQEALLALGPSPVHRKRFAPVAQAPLRFPEAP”, “soluble”.
For “MAEGQIIKALSGFYYVLSEGRVFQCRGRGVFRKKKVTPLVGDRVVFQATSETEGYILEIGERQNELVRPPIANVEQAILVFSAVSPDFSAKLLDRFLVLVESKRIAPIIVISKIDLLDGESKEEIARYVHDYRSIGYDVIETSAVTKGGLDELALRLRGRVSVVAGQSGVGKSSLLNALRPDLRLKTGDISTHLGRGKHTTRHVELLEVAGGLVADTPGFGALEFDQIELDELPHYFPEFRTYGEGCKFRGCLHIAEPKCAVREAVEAGEIPSYRYDHYVSFVAEMKERKPRY” the value was “not soluble”; for “MAEGVNEPCFPGDCGIFVTKVDKGSIADGRLRVNDWLLRINDVDLINKDKKQAIKALLNGEGAINMVVRRRKSLGGKVVTPLHINLSGQKDSGISLENGVYAAAVLPGSPAAKEGSLAVGDRIVAINGIALDNKSLNECESLLRSCQDSLTLSLLKVFPQSSSWSGQNIFENIKDSDKMLSFRAHGPEVQAHNKRNLIQHNNSTQTDIFYTDRLEDRKEPGPPGGSSSFLHKPFPGGPLQVCPQACPSASERSLSSFRSDASGDRGFGLVDVRGRRPLLPFETEVGPCGVGEASLDKADSEGSNSGGTWPKAMLSSTAVPEKLSVYKKPKQRKSIFDPNTFKRPQTPPKIDYLLPGPGPAHSPQPSKRAGPLTPPKPPRRSDSIKFQHRLETSSESEATLVGSSPSTSPPSALPPDVDPGEPMHASPPRKARVRIASSYYPEGDGDSSHLPAKKSCDEDLTSQKVDELGQKRRRPKSAPSFRPKLAPVVIPAQFLEEQKCVPASGELSPELQEWAPYSPGHSSRHSNPPLYPSRPSVGTVPRSLTPSTTVSSILRNPIYTVRSHRVGPCSSPPAARDAGPQGLHPSVQHQGRLSLDLSHRTCSDYSEMRATHGSNSLPSSARLGSSSNLQFKAERIKIPSTPRYPRSVVGSERGSVSHSECSTPPQSPLNIDTLSSCSQSQTSASTLPRIAVNPASLGERRKDRPYVEEPRHVKVQKGSEPLGISIVSGEKGGIYVSKVTVGSIAHQAGLEYGDQLLEFNGINLRSATEQQARLIIGQQCDTITILAQYNPHVHQLSSHSRSSSHLDPAGTHSTLQGSGTTTPEHPSVIDPLMEQDEGPSTPPAKQSSSRIAGDANKKTLEPRVVFIKKSQLELGVHLCGGNLHGVFVAEVEDDSPAKGPDGLVPGDLILEYGSLDVRNKTVEEVYVEMLKPRDGVRLKVQYRPEEFTKAKGLPGDSFYIRALYDRLADVEQELSFKKDDILYVDDTLPQGTFGSWMAWQLDENAQKIQRGQIPSKYVMDQEFSRRLSMSEVKDDNSATKTLSAAARRSFFRRKHKHKRSGSKDGKDLLALDAFSSDSIPLFEDSVSLAYQRVQKVDCTALRPVLILGPLLDVVKEMLVNEAPGKFCRCPLEVMKASQQAIERGVKDCLFVDYKRRSGHFDVTTVASIKEITEKNRHCLLDIAPHAIERLHHMHIYPIVIFIHYKSAKHIKEQRDPIYLRDKVTQRHSKEQFEAAQKLEQEYSRYFTGVIQGGALSSICTQILAMVNQEQNKVLWIPACPL”, “soluble”.
As for “MAEHRSMQRAALLDAARSLLSDGGTEALTFPALAERTGLARSSVYEYFRSRAAVVEELCAVDFPVWAAEVEAAMERETAPDAKVEAYVRTQLDLVGDRRHRAVVAISASELDAGAREKIRAAHGGLIAMIVEALGEMGHGQPRLAAMLLQGVVDAAVRRIELGAAEEPGAITEAAVSMALRGVRG”, the entry is “not soluble”.
With “MAEKALATLKELAFLEDPSPVERDAAIQRFEYTFEAFWKALQAYLREKEGLEGASPKGVIRLAREVGLLRDEEARLALGMVDDRSLTVHTYNEPLARAIFRRLPDYARLMEQVLGRLRR”, the “soluble on expression in E. coli” value was “soluble”.
For “MAEKMQAIMKTKPAYGAELVEVDVPKPGPGEVLIKVLATSICGTDLHIYEWNEWAQSRIKPPQIMGHEVAGEVVEVGPGVEDLQVGDYISVETHIVCGKCYACKHNRYHVCQNTKIFGVDMDGVFAHYAIVPAKNAWKNPKDMPPEYAALQEPLGNAVDTVLAGPIAGRSTLITGAGPLGLLGIAVAKASGAYPVIVSEPSEFRRKLAKKVGADYVVNPFEEDPVKFVMDITDGAGVEVFLEFSGAPKALEQGLKAVTPGGRVSLLGLFPREVTIDFNNLIIFKALEVHGITGRHLWETWYTVSSLIQSGKLNLDPIITHKYKGFDKFEEAFELMRAGKTGKVVFFPHKG” the value was “soluble”.
For “MAELSDQEMLRYNRQIILRGFDFDGQEALKDSRVLIVGLGGLGCAASQYLASAGVGNLTLLDFDTVSLSNLQRQTLHSDATVGQPKVESARDALTRINPHIAITPVNALLDDAELAALIAEHDLVLDCTDNVAVRNQLNAGCFAAKVPLVSGAAIRMEGQITVFTYQDGEPCYRCLSRLFGENALTCVEAGVMAPLIGVIGSLQAMEAIKMLAGYGKPASGKIVMYDAMTCQFREMKLMRNPGCEVCGQ” the value was “soluble”.
For “MAERELYIGVMSGTSLDGVDTALVALQDDNIELLAHHDYPIPADLKQRLLNVCIGQPTTLIAMGELEHDLGHLFSDAVLALLQHSGYRAEHIRAIGCHGQTVFHQPTGTKPFTMQIGDANIIATRTGITTVADFRRKDVALGGQGAPLVPAFHRTIFHAEQSTVVVLNIGGIANISVLKPNGEVVGYDTGPGNMLMDSWCQKERNQPYDKDALWAKQGSVNAALLSHLKQDHYFALPAPKSTGRELFNLPWLETQLATFSVDATDVQRTLCEFTAQTIVEQVAPFAEGPQPQLLVCGGGAQNPLLMERLQALLPSWQVAPTTQMGVDGDNMEAMAFAWLAQRRIHGLPSNLPAVTGASRLASLGVIYYPD” the value was “not soluble”; for “MAERTHFMELALVEARSAGERDEVPIGAVLVLDGRVIARSGNRTRELNDVTAHAEIAVIRMACEALGQERLPGADLYVTLEPCTMCAAAISFARIRRLYYGAQDPKGGAVESGVRFFSQPTCHHAPDVYSGLAESESAEILRQF”, “soluble”; for “MAESFTTTNRYFDNKHYPRGFSRHGDFTIKEAQLLERHGYAFNELDLGKREPVTEEEKLFVAVCRGEREPVTEAERVWSKYMTRIKRPKRFHTLSGGKPQVEGAEDYTDSDD”, “soluble”.
“MAETIISLLSPTLDIKSPYYFNPDYLHQFNMHTNTAIDKLSEAKDNYAIWKLRFFDLLQFTNKTGFIDGTLPKPDPSSPYYEPWKQCNAIVLHWLSNTVTDTLQNHVLQAETVHKAWEDLRRIFVPCIDFKIYELRQRLATLRQGGDSVAEYFGKLSKAWLELKAYDPVQECKCGGCDCESEKRATEAREKEQRYAFLMGLNKEFDYVKMKVMHKKIPPSVYQAYEMVVYSEAMMKWKMGGRI”: the “soluble on expression in E. coli” value was “soluble”.
As for “MAFADIVRSVENRTNAATLNWSIKNGWKPEVTGFSGYGSGRRVRVLARVLMSNPENLLVDAPSQSITQQAQRGWRQFFTIQVPNLPVTVTVGGKTVTSSTNDNGYVDLLVEDHNLDPGWHTIQIQAEGSTPAEARVLIVENTARIGLISDIDDTIMVTWLPRALLAAWNSWVLHTKTRKPVPGMNRFYEELLKDHPDAPVFYLSTGAWNTFETLQEFINKHALPDGPMLLTDWGPTPTGLFRSGQEHKKVQLRNLFIEYPDMKWILVGDDGQHDPLIYGEAVEEHPNRIAGVAIRELSPGEHVLSHGTTASLSTITTNGGQGVPVVHGRDGYELLQRYETKPFALEHHHHHH”, the entry is “soluble”.
As for “MAFISFRDFMEKAVKDYYSSQRALKDFFTAPELDRAFGEALAEFFSQHLSEFERPALVELGAGRGLLAYDILNYYRANYPDLFNRLKYYIYEFSPYLISKQREVLKNFKNVEWVEELPKVEGIVFSNEFFDALPVHIVKGGKELYVDEKGSEVWLSLENEKVKEFLRRMNYENLNQIVEVCLDCIDMLKKISESLVEGYHFVIDYGYTSEEITKYPEGTVVAYKEHKVVKDFLKEAGNADITAHVNFSALMEYGRDFGLETILFQSQRDFLMHIPTFLNELEKLSWEESAESVERLSRLKTMLISMGDRFKVLLQRKLSQLEHHHHHH”, the entry is “not soluble”; as for “MAFLLKLEPDMQGKVDLFRARIAQEAEDLVSTFFPQKVLELNSRVQELRLQDLSRIHSVPTSEPLATPGNKGDGPNQNLPVLLTQFSIKVPALLGSEGQLLRSNQHLVELTEWVKPEIKLLREKCNTVHM”, “not soluble”; as for “MAFSGSQAPYLSPAVPFSGTIQGGLQDGLQITVNGTVLSSSGTRFAVNFQTGFSGNDIAFHFNPRFEDGGYVVCNTRQNGSWGPEERKTHMPFQKGMPFDLCFLVQSSDFKVMVNGILFVQYFHRVPFHRVDTISVNGSVQLSYISFQNPRTVPVQPAFSTVPFSQPVCFPPRPRGRRQKPPGVWPANPAPITQTVIHTVQSAPGQMFSTPAIPPMMYPHPAYPMPFITTILGGLYPSKSILLSGTVLPSAQRFHINLCSGNHIAFHLNPRFDENAVVRNTQIDNSWGSEERSLPRKMPFVRGQSFSVWILCEAHCLKVAVDGQHLFEYYHRLRNLPTINRLEVGGDIQLTHVQT”, “soluble”.
For “MAGAKHIIDTSFLTQLDRYAIPLSRRVTAVHTGSHQSTRTGAGLDIIDHRKYNQGDSLKRIDWNLYARTEKLYIRRFEEDKNLNMVILLDASSSMLFPDNTPNKFEYAATVAAGVSYIVMKHNDVYTIATFADDVDYTKSHKGRDDFLRTIDNLTQIPVSGTTKLADCADSIYPRIKSKSMVLIMSDFLDNLDSVQKAVNRLSRHELVIVHIYDENEINLPESVDGTVKFIDSETGEEISFTVGAGFKKEYASEYSKHMAELEKIAYDFKIPYFRVSIKNEPFDTVLKIIGEG” the value was “not soluble”.
Take “MAGATDQRRQEVLRAIVADYIASQEPVGSKALLERHNLKVSSATIRNDMAVLESEGYIVQQHASSGRIPTEKAYRTFVDSINDIKPLSVAERRAILGFLERGVDLEDVLKRSVQLLSQLTRQAAVIQLPNLNVSRVKHCEVVLLSPVRLLLVLITDNGRVEQRNVEVDQICEPEHVAKMRDVLNRALDNKTLSDASASLAELAAGEILVDPDIQPMILRCATVLIETLVEQPNDRLILAGASNLTHIAREMPSSLPAMLEALEEQVVVLKLLTNVRDLGHVSVLIGEENEDEQLRGTSVVTTGYGAQGATLGGLGVVGPTFMDYSGTMSKVYAVAHYVSRVLSGG”: the “soluble on expression in E. coli” value is listed as “not soluble”.
